Data taken from PMC5633104 (The Journal of Biological Chemistry, 2017).
One block for each molecule: values may come before it.

Legend:
[1] = biological target: His-tagged β-catenin–WT, tyrosine-phosphorylated form (P–β-catenin) (UniProt P35222); test: ELISA; called a pairwise binding assay, done as in refs. 19, 20; by the legends a β-catenin-coated 96-well microtiter plate with Jak3 added, optical density read; Kd by Hyperbol-fit (MicroCal Origin)
Hif1α = Hif1α (UniProt Q16665); test: co-IP and immunoblot; conditions: reference: wild type, EGF + IL-2; sites Y30,Y64,Y86
[2] = biological target: T1, Autophosphorylated GST-tagged Jak3-WT (P-Jak3-WT) (UniProt P52333 1-1124, autophosphorylated on tyrosine (sites not given)); test: ELISA; called a pairwise binding assay, done as in refs. 19, 20; by the legends a β-catenin-coated 96-well microtiter plate with Jak3 added, optical density read; Kd by Hyperbol-fit (MicroCal Origin); conditions: both partners purified
T1 construct: also called phosphorylated Jak3; source: E. coli BL-21, purified, autophosphorylated
T1 sequence (looked up): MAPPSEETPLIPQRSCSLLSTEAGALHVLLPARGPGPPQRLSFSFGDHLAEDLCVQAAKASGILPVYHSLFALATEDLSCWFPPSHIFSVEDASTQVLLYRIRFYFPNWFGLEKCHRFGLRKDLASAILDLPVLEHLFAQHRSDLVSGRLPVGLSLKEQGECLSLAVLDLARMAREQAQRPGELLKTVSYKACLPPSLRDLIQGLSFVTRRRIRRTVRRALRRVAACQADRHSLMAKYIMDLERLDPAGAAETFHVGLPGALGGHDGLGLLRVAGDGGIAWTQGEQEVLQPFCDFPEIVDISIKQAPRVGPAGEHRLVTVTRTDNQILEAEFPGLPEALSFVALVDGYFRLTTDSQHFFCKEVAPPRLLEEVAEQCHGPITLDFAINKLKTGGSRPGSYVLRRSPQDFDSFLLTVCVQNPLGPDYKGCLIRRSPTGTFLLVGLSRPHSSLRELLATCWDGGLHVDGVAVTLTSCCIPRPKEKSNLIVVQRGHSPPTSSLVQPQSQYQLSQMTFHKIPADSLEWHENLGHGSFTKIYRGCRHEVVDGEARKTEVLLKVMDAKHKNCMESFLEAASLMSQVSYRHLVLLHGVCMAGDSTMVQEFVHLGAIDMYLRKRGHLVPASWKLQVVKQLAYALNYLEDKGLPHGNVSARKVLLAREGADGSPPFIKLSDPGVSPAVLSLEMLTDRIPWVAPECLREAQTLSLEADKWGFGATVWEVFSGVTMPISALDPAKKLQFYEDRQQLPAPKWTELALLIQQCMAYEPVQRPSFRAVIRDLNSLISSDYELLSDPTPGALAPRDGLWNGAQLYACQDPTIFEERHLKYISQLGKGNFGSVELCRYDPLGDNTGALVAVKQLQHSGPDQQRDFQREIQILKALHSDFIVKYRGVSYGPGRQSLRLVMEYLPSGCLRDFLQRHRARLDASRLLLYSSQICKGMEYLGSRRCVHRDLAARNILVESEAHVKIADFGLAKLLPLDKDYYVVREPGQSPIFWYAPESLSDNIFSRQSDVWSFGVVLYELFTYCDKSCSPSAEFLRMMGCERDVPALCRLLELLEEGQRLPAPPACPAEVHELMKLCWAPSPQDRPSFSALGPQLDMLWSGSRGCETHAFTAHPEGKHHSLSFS

fold decrease of the interaction against Jak3-WT [1]: > 4 fold
Molecule: Jak3 with the kinase domain deleted (domain or fragment)

binding against the reference (Hif1α): stronger
Molecule: β-catenin (from UniProt P35222) Y30F,Y64F,Y86F, EGF + IL-2

Kd [2]: 280 nM
B1: His-tagged β-catenin–WT, tyrosine-phosphorylated form (P–β-catenin) (natural protein, UniProt P35222 1-781, looked up)
chain: MATQADLMELDMAMEPDRKAAVSHWQQQSYLDSGIHSGATTTAPSLSGKGNPEEEDVDTSQVLYEWEQGFSQSFTQEQVADIDGQYAMTRAQRVRAAMFPETLDEGMQIPSTQFDAAHPTNVQRLAEPSQMLKHAVVNLINYQDDAELATRAIPELTKLLNDEDQVVVNKAAVMVHQLSKKEASRHAIMRSPQMVSAIVRTMQNTNDVETARCTAGTLHNLSHHREGLLAIFKSGGIPALVKMLGSPVDSVLFYAITTLHNLLLHQEGAKMAVRLAGGLQKMVALLNKTNVKFLAITTDCLQILAYGNQESKLIILASGGPQALVNIMRTYTYEKLLWTTSRVLKVLSVCSSNKPAIVEAGGMQALGLHLTDPSQRLVQNCLWTLRNLSDAATKQEGMEGLLGTLVQLLGSDDINVVTCAAGILSNLTCNNYKNKMMVCQVGGIEALVRTVLRAGDREDITEPAICALRHLTSRHQEAEMAQNAVRLHYGLPVVVKLLHPPSHWPLIKATVGLIRNLALCPANHAPLREQGAIPRLVQLLVRAHQDTQRRTSMGGTQQQFVEGVRMEEIVEGCTGALHILARDVHNRIVIRGLNTIPLFVQLLYSPIENIQRVAAGVLCELAQDKEAAEAIEAEGATAPLTELLHSRNEGVATYAAAVLFRMSEDKPQDYKKRLSVELTSSLFRTEPMAWNETADLGLDIGAQGEPLGYRQDDPSYRSFHSGGYGQDALGMDPMMEHEMGGHHPGADYPVDGLPDLGHAQDLMDGLPPGDSNQLAWFDTDL
modifications: tyrosine-phosphorylated (made in TKX1; sites not stated)
notes: β-catenin, wild type, full-length cDNA; also called phosphorylated β-catenin; source: E. coli TKX1, purified
